The source of these data is patent US20080207488A1, “Method for Detecting Peptides Comprising a Cross-B Structure” (priority 2005, published 2008).

The target in experiment [1] is tissue-type plasminogen activator (tPA) (human) (UniProt P00750). Briefly: cell-based or functional assay.
Experiment [2] addresses human coagulation factor VIII isolated from healthy volunteers (Aafact) (human) (UniProt P00451). Briefly: ELISA, therapeutic coated, tPA concentration series, one-site binding fit. Background: An ELISA detects its analyte on a solid surface through an enzyme-linked reagent.

human coagulation factor VIII isolated from healthy volunteers (Aafact) (human), sequence (P00451 20-2351): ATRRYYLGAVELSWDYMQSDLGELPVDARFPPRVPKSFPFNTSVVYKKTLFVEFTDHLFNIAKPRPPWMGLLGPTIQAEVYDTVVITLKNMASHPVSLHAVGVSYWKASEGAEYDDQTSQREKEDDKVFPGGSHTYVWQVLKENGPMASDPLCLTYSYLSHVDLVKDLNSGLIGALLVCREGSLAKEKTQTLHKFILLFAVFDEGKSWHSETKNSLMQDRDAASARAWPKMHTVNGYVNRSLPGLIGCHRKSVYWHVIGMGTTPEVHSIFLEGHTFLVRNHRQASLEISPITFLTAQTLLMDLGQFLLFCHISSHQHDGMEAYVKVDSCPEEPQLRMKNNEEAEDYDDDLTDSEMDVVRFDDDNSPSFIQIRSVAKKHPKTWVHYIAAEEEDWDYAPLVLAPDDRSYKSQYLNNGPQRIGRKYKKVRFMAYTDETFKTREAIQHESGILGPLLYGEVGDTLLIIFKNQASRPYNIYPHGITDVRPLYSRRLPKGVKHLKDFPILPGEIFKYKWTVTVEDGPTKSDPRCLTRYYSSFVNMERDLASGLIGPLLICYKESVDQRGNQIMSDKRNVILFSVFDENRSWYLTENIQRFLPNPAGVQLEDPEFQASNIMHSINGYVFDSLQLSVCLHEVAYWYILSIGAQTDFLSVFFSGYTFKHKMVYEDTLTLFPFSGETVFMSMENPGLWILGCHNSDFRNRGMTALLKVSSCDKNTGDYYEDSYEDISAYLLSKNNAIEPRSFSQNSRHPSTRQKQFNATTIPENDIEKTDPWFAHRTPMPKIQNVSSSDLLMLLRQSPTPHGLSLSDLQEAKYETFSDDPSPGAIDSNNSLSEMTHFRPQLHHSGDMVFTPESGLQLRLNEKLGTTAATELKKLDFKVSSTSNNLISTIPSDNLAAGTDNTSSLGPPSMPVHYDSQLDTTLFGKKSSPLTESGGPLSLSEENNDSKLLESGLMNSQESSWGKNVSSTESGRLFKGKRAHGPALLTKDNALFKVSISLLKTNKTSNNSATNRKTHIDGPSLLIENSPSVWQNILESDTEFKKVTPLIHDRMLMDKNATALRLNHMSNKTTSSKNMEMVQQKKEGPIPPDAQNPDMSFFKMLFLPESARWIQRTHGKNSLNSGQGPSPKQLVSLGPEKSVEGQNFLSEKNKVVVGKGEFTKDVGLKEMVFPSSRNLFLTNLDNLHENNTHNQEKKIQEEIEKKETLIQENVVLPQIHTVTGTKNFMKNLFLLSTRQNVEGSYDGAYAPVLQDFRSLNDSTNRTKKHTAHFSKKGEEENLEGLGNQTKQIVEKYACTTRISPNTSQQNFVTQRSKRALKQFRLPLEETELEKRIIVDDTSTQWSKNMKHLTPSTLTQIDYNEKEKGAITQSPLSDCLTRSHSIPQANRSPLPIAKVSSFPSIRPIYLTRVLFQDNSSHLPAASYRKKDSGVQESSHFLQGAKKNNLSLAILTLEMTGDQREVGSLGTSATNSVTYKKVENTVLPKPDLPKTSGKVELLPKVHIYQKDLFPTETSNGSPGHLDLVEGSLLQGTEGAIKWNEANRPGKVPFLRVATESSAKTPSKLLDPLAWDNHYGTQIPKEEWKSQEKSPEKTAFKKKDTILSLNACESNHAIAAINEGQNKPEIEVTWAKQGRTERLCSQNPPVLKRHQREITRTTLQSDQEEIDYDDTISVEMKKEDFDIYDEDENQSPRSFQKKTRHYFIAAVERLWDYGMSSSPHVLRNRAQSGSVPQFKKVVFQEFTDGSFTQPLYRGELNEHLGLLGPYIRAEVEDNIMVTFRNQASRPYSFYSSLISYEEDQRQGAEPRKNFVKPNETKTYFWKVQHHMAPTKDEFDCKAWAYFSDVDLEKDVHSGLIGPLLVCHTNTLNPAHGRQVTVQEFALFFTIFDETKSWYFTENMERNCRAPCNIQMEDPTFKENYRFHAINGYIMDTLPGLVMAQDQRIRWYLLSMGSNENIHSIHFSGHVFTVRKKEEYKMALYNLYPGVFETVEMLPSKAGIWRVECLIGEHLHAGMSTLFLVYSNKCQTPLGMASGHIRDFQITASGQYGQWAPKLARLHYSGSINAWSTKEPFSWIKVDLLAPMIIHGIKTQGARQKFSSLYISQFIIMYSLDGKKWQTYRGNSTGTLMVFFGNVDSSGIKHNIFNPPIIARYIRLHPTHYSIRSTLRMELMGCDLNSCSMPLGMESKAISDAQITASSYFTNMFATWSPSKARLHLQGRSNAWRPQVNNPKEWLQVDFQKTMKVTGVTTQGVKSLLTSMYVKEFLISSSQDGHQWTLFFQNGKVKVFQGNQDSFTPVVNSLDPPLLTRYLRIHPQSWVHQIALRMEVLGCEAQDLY

In experiment [1], “human coagulation factor VIII isolated from healthy volunteers (Aafact) (from UniProt P00451 20-2351)” displayed a tPA activation, Max. Activation (%) of 4.22%.
In experiment [1], “human glucagon (Glucagen) (from UniProt P01275 53-81) (peptide)” yielded a tPA activation, Max. Activation (%) of 11.2%.
Substance Etanercept (Enbrel) (Fc fusion) had a tPA activation, Max. Activation (%) in experiment [1] of 0%.
Regarding “Epoietin Alfa (from UniProt P01588 28-192) (ligand)”, the tPA activation, Max. Activation (%) in experiment [1] was 0%.
“human-murine chimeric monoclonal antibody (Remicade-infliximab)” had a tPA activation, Max. Activation (%) in experiment [1] of 0%.
Substance “rapid acting human insulin analogue (NovoRapid Flexpen) (from UniProt P01308 90-110; P01308 25-54) (ligand)” yielded a tPA activation, Max. Activation (%) in experiment [1] of 70.9%.
Regarding “tissue-type plasminogen activator (tPA) (from UniProt P00750 36-562) (enzyme)”, in experiment [2], the Bmax (OD450 nm) turned out to be 0.54 OD450 nm and the Kd (usually the concentration at which binding is half-saturated) came out at 230 nM.
